Assay results: patent US20150203577A1 (Chugai, published 2015)

T1: mouse FcγRII extracellular domain with C-terminal His tag (mouse, UniProt P08101 30-210)
T1 construct: Made on the basis of NCBI NP-034317.1; also called mFcγRII; mFcgRII
T1 sequence: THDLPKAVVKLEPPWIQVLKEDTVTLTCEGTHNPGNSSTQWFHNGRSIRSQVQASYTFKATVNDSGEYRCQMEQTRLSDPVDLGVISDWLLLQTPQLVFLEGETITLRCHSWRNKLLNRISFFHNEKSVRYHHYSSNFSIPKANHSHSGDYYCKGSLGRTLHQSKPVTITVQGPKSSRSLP

T2: mouse FcγRIII extracellular domain with C-terminal His tag (mouse, UniProt P08508 31-215)
T2 construct: Made on the basis of NCBI NP-034318.2; also called mFcγRIII; mFcgRIII
T2 chain: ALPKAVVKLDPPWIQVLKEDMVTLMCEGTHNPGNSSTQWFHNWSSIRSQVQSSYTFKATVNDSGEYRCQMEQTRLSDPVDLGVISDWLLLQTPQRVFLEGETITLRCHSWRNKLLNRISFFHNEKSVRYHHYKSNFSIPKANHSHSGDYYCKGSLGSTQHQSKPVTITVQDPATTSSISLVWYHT

B1: H237-MB339/MRAL-k0 (antibody, mouse IgG1, kappa)
heavy: QVQLQESGPGLVKPSETLSLTCAVSGHSISHDHAWSWVRQPPGEGLEWIGFISYSGITNYNPSLQGRVTISRDNSKNTLYLQMNSLRAEDTAVYYCARSLARTTAMDYWGEGTLVTVSSAKTTPPSVYPLAPGSAAQTNSMVTLGCLVKGYFPEPVTVTWNSGSLSSGVHTFPAVLQSDLYTLSSSVTVPSSTWPSETVTCNVAHPASSTKVDKKIVPRDCGCKPCICEVWEVEDVFIFPPKPKDVLTITLTPKVTCVVVDISKDDPEVQFSWFVDDVEVHTAQTQPREEQFNSTFRSVSELPIMHQDWLNGKEFKCRVNSAAFPAPIEKTISKTKGRPKAPQVYTIPPPKEQMAKDKVSLTCMITDFFPEDITVEWQWNGQPAENYKNTQPIMDTDGSYFVYSKLNVQKSNWEAGNTFTCSVLHEGLHNHHTEKSLSHSPGK
light: not shown
notes: copies: 2 + 2
B2: H237-MB358/MRAL-k0 (antibody, mouse IgG1, kappa)
heavy: QVQLQESGPGLVKPSETLSLTCAVSGHSISHDHAWSWVRQPPGEGLEWIGFISYSGITNYNPSLQGRVTISRDNSKNTLYLQMNSLRAEDTAVYYCARSLARTTAMDYWGEGTLVTVSSAKTTPPSVYPLAPGSAAQTNSMVTLGCLVKGYFPEPVTVTWNSGSLSSGVHTFPAVLQSDLYTLSSSVTVPSSTWPSETVTCNVAHPASSTKVDKKIVPRDCGCKPCICEAAEVEDVFIFPPKPKDVLTITLTPKVTCVVVDISKDDPEVQFSWFVDDVEVHTAQTQPREEQFNSTFRSVSELPIMHQDWLNGKEFKCRVNSAAFPAPIEKTISKTKGRPKAPQVYTIPPPKEQMAKDKVSLTCMITDFFPEDITVEWQWNGQPAENYKNTQPIMDTDGSYFVYSKLNVQKSNWEAGNTFTCSVLHEGLHNHHTEKSLSHSPGK
light: not shown
notes: copies: 2 + 2
B3: H237-MB380/MRAL-k0 (antibody, mouse IgG1, kappa)
heavy: QVQLQESGPGLVKPSETLSLTCAVSGHSISHDHAWSWVRQPPGEGLEWIGFISYSGITNYNPSLQGRVTISRDNSKNTLYLQMNSLRAEDTAVYYCARSLARTTAMDYWGEGTLVTVSSAKTTPPSVYPLAPGSAAQTNSMVTLGCLVKGYFPEPVTVTWNSGSLSSGVHTFPAVLQSDLYTLSSSVTVPSSTWPSETVTCNVAHPASSTKVDKKIVPRDCGCKPCICEDAEVEDVFIFPPKPKDVLTITLTPKVTCVVVDISKDDPEVQFSWFVDDVEVHTAQTQPREEQFNSTFRSVSELPIMHQDWLNGKEFKCRVNSAAFPAPIEKTISKTKGRPKAPQVYTIPPPKEQMAKDKVSLTCMITDFFPEDITVEWQWNGQPAENYKNTQPIMDTDGSYFVYSKLNVQKSNWEAGNTFTCSVLHEGLHNHHTEKSLSHSPGK
light: not shown
notes: copies: 2 + 2
B4: H237-MB340/MRAL-k0 (antibody, mouse IgG1, kappa)
heavy: QVQLQESGPGLVKPSETLSLTCAVSGHSISHDHAWSWVRQPPGEGLEWIGFISYSGITNYNPSLQGRVTISRDNSKNTLYLQMNSLRAEDTAVYYCARSLARTTAMDYWGEGTLVTVSSAKTTPPSVYPLAPGSAAQTNSMVTLGCLVKGYFPEPVTVTWNSGSLSSGVHTFPAVLQSDLYTLSSSVTVPSSTWPSETVTCNVAHPASSTKVDKKIVPRDCGCKPCICEAWEVEDVFIFPPKPKDVLTITLTPKVTCVVVDISKDDPEVQFSWFVDDVEVHTAQTQPREEQFNSTFRSVSELPIMHQDWLNGKEFKCRVNSAAFPAPIEKTISKTKGRPKAPQVYTIPPPKEQMAKDKVSLTCMITDFFPEDITVEWQWNGQPAENYKNTQPIMDTDGSYFVYSKLNVQKSNWEAGNTFTCSVLHEGLHNHHTEKSLSHSPGK
light: not shown
notes: copies: 2 + 2
B5: H237-MB377/MRAL-k0 (antibody, mouse IgG1, kappa)
heavy: QVQLQESGPGLVKPSETLSLTCAVSGHSISHDHAWSWVRQPPGEGLEWIGFISYSGITNYNPSLQGRVTISRDNSKNTLYLQMNSLRAEDTAVYYCARSLARTTAMDYWGEGTLVTVSSAKTTPPSVYPLAPGSAAQTNSMVTLGCLVKGYFPEPVTVTWNSGSLSSGVHTFPAVLQSDLYTLSSSVTVPSSTWPSETVTCNVAHPASSTKVDKKIVPRDCGCKPCICEVAEVEDVFIFPPKPKDVLTITLTPKVTCVVVDISKDDPEVQFSWFVDDVEVHTAQTQPREEQFNSTFRSVSELPIMHQDWLNGKEFKCRVNSAAFPAPIEKTISKTKGRPKAPQVYTIPPPKEQMAKDKVSLTCMITDFFPEDITVEWQWNGQPAENYKNTQPIMDTDGSYFVYSKLNVQKSNWEAGNTFTCSVLHEGLHNHHTEKSLSHSPGK
light: not shown
notes: copies: 2 + 2
B6: H237-MB341/MRAL-k0 (antibody, mouse IgG1, kappa)
heavy: QVQLQESGPGLVKPSETLSLTCAVSGHSISHDHAWSWVRQPPGEGLEWIGFISYSGITNYNPSLQGRVTISRDNSKNTLYLQMNSLRAEDTAVYYCARSLARTTAMDYWGEGTLVTVSSAKTTPPSVYPLAPGSAAQTNSMVTLGCLVKGYFPEPVTVTWNSGSLSSGVHTFPAVLQSDLYTLSSSVTVPSSTWPSETVTCNVAHPASSTKVDKKIVPRDCGCKPCICEDWEVEDVFIFPPKPKDVLTITLTPKVTCVVVDISKDDPEVQFSWFVDDVEVHTAQTQPREEQFNSTFRSVSELPIMHQDWLNGKEFKCRVNSAAFPAPIEKTISKTKGRPKAPQVYTIPPPKEQMAKDKVSLTCMITDFFPEDITVEWQWNGQPAENYKNTQPIMDTDGSYFVYSKLNVQKSNWEAGNTFTCSVLHEGLHNHHTEKSLSHSPGK
light: not shown
notes: copies: 2 + 2
B7: H237-MB378/MRAL-k0 (antibody, mouse IgG1, kappa)
heavy: QVQLQESGPGLVKPSETLSLTCAVSGHSISHDHAWSWVRQPPGEGLEWIGFISYSGITNYNPSLQGRVTISRDNSKNTLYLQMNSLRAEDTAVYYCARSLARTTAMDYWGEGTLVTVSSAKTTPPSVYPLAPGSAAQTNSMVTLGCLVKGYFPEPVTVTWNSGSLSSGVHTFPAVLQSDLYTLSSSVTVPSSTWPSETVTCNVAHPASSTKVDKKIVPRDCGCKPCICEVNEVEDVFIFPPKPKDVLTITLTPKVTCVVVDISKDDPEVQFSWFVDDVEVHTAQTQPREEQFNSTFRSVSELPIMHQDWLNGKEFKCRVNSAAFPAPIEKTISKTKGRPKAPQVYTIPPPKEQMAKDKVSLTCMITDFFPEDITVEWQWNGQPAENYKNTQPIMDTDGSYFVYSKLNVQKSNWEAGNTFTCSVLHEGLHNHHTEKSLSHSPGK
light: not shown
notes: copies: 2 + 2
B8: H237-MB367/MRAL-k0 (antibody, mouse IgG1, kappa)
heavy: QVQLQESGPGLVKPSETLSLTCAVSGHSISHDHAWSWVRQPPGEGLEWIGFISYSGITNYNPSLQGRVTISRDNSKNTLYLQMNSLRAEDTAVYYCARSLARTTAMDYWGEGTLVTVSSAKTTPPSVYPLAPGSAAQTNSMVTLGCLVKGYFPEPVTVTWNSGSLSSGVHTFPAVLQSDLYTLSSSVTVPSSTWPSETVTCNVAHPASSTKVDKKIVPRDCGCKPCICEANEVEDVFIFPPKPKDVLTITLTPKVTCVVVDISKDDPEVQFSWFVDDVEVHTAQTQPREEQFNSTFRSVSELPIMHQDWLNGKEFKCRVNSAAFPAPIEKTISKTKGRPKAPQVYTIPPPKEQMAKDKVSLTCMITDFFPEDITVEWQWNGQPAENYKNTQPIMDTDGSYFVYSKLNVQKSNWEAGNTFTCSVLHEGLHNHHTEKSLSHSPGK
light: not shown
notes: mIgG1 with T230E/V231A/P232N/S238E/S239D (EU); copies: 2 + 2

Key:
[1] = molecular target: T1, mouse FcγRII extracellular domain with …; experiment: SPR Biacore T200
Procedure: (§1) Each altered antibody was analyzed for its interaction with each Fcγ receptor prepared above using Biacore T100 (GE Healthcare Japan Corp.), Biacore T200 (GE Healthcare Japan Corp.), Biacore A100, or Biacore 4000. The running buffer used was HBS-EP+ (GE Healthcare Japan Corp.). The assay temperature was set to 25° C. The sensor chips used were chips prepared by immobilizing Protein L (ACTIGEN or BioVision) onto Series S Sensor Chip CM5 (GE Healthcare Japan Corp.) or Series S Sensor Chip CM4 (GE Healthcare Japan Corp.) by the amine coupling method.
(§2) In order to calculate the KD value of each altered antibody for FcγR, kinetic analysis was conducted according to the following method: first, the antibody of interest was captured onto any of these chips and allowed to interact with mFcγR diluted with a running buffer. For the obtained sensorgram, the assay results were globally fit into the 1:1 Langmuir binding model using Biacore Evaluation Software to calculate an association rate constant ka (L/mol/s) and a dissociation rate constant kd (1/s). From these values, the dissociation constant KD (mol/L) was calculated.

[2] = molecular target: T2, mouse FcγRIII extracellular domain with …; experiment: SPR Biacore T200
Procedure: as §1, §2

[3] = molecular target: T1, mouse FcγRII extracellular domain with …; experiment: SPR Biacore T200; KD mFcγRIII / KD mFcγRII
Procedure: as §1, §2

| Binder | relative mFcγRII-binding activity (mIgG1 = 1) [1] | relative mFcγRIII-binding activity (mIgG1 = 1) [2] | relative I/A (mFcγRII selectivity) (mIgG1 = 1) [3] | Kd [1] | Kd [2] | I/A (mFcγRII selectivity) [3] |
| --- | --- | --- | --- | --- | --- | --- |
| B1 | 197 | 11.6 | 17 |  |  |  |
| B2 | 114 | 4.1 | 27.7 |  |  |  |
| B3 | 78.1 | 4.2 | 18.7 |  |  |  |
| B4 | 221 | 9.9 | 22.4 | 0.952 nM | 28.6 nM | 30 |
| B5 | 127 | 6 | 21.3 |  |  |  |
| B6 | 268 | 11.5 | 23.4 | 0.782 nM | 24.6 nM | 31.4 |
| B7 | 172 | 9.3 | 18.6 |  |  |  |
| B8 | 159 | 6.2 | 25.6 |  |  |  |
